The subject of data set [1] is HCC1806 xenograft. The following applies: for TGI: HCC1806 xenograft (Figure 7D). The procedure: Female BALB/c nude mice (Charles River, Beijing, China) were inoculated with 2×10^6 HCC1806 cells in the right front flank. To evaluate in vivo efficacy of ADC, when the average tumor size reached about 120 mm^3, mice were randomized into 7 groups (n = 6 mice/group). The mice were treated with SKB264 or IMMU-132 at doses of 1, 3, and 10 mg/kg twice a week for six times via i.v. injection. To evaluate the PK-PD of ADC, when the average tumor size reached approximately 270 mm^3, mice were randomized into three groups (n = 5/time point). The mice received a single i.v. injection of control hIgG1, SKB264, or IMMU-132 (3 mg/kg), respectively. Blood samples (from five mice) were collected at 1 h, 4 h, 8 h, 24 h, 48 h, 96 h, 192 h, or 336 h post-dosing to detect the concentration of payload at each time point. The rate of TGI (n = 5 mice, measured at endpoint, i.e., 336 h) was determined to evaluate the antitumor efficacy of ADC. Body weight changes and mortality were also recorded to evaluate the tolerability of the testing items.

The nature of data set [2]: in vitro stability in human plasma (payload release). It counts as in vitro ADME. Particulars: 50 μg/ml, 37°C, 48-h incubation.
Data set [3] concerns triple-negative breast cancer. Details: method as in PMID 28291390, PMID 25944802. The following applies: drug-resistant triple-negative breast cancer (TNBC) patients; cited from earlier work.
A further data set concerns the target T1, Human TROP2 protein (Homo sapiens, UniProt P09758).
T1 sequence (P09758 27-323): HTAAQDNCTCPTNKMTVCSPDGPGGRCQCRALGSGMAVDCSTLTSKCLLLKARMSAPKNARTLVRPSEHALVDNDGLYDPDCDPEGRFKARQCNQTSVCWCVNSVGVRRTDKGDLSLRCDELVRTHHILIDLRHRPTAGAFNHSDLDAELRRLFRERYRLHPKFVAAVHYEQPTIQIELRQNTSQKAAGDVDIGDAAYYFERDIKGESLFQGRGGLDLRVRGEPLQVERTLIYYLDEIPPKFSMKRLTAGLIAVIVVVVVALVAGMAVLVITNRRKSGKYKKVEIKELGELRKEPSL
The experiment in a line: SPR dynamic affinity to human TROP2. It counts as binding. The following applies: read-out: K d (KD) to recombinant human TROP2. The procedure: Surface plasmon resonance (SPR) was an alternative method to evaluate dynamic affinity, in which human TROP2 protein was captured with goat anti-human IgG Ab immobilized onto a CM5 sensor chip (Biacore Inc., Raleigh, NC). Serial titrations of SKB264 or IMMU-132 ranging from 0.0823 to 2.22 nM and running buffer were individually injected over the surface, which was captured human TROP2 for an association phase of 120 s, followed by a 600-s dissociation time. Kinetic parameters were calculated using the BIA evaluation software with the average values of two datasets collected on separate days. Association (K a) and dissociation (K d) rate constant values were calculated by fitting analysis assuming a Langmuir binding model ([16]) and a stoichiometry of (1:1) to determine K D (equilibrium dissociation constant) values.

On the set-up of data set [4]: method as in PMID 25494821. Particulars: cited from earlier work.
A short description of data set [5]: in vitro stability in monkey plasma (payload release). Particulars: cynomolgus monkey plasma, 50 μg/ml, 37°C, 48-h incubation. It counts as in vitro ADME, cynomolgus monkeys.
For data set [6], the system named is HCC1806 xenograft. The experiment in a line: PK-PD study, single dose, HCC1806 xenograft. It counts as in vivo, BALB/c nude mice. Particulars: HCC1806 xenograft; single i.v. 3 mg/kg; after 13 days (336 h). As to the method:
Phoenix WinNonlin 8.1 was used to calculate the PK parameters in the non-compartment model, including t 1/2, T max, C max, AUC0-t, and AUC0-∞. […] The half maximal effective concentration (EC50) and half maximal inhibitory concentration (IC50) were calculated using a nonlinear regression model with sigmoidal fitting. The in vitro antitumor activities of drugs were evaluated by a two-tailed paired t-test.

On the set-up of data set [7]: method as in PMID 25944802. The following applies: tumor-bearing mice model; previous studies; cited from earlier work.

Where two headings read alike, the source gives them in different places.

Turning to sacituzumab govitecan [IMMU-132], the TGI in the data set on HCC1806 xenograft [1] (1 mg/kg i.v. twice a week for six times) came to 48.12%; with HCC1806 xenograft [1] (3 mg/kg i.v. twice a week for six times), 70.64%; with HCC1806 xenograft [1] (10 mg/kg i.v. twice a week for six times), 153.27%; in the data set on HCC1806 xenograft [6], 21.05%. In addition, the “body weight of the experimental mice” value with HCC1806 xenograft [1] (HCC1806 xenograft, all treatment groups 1, 3, 10 mg/kg) is “no significant change”. The “release rate of the payload” value in data set [2] and in data set [5] was about 100% throughout. Also, the “objective response rate (ORR)” value in data set [3] is given as 33%. In addition, the Kd (commonly the concentration at which binding is half-saturated) in the data set with Human TROP2 protein is 294 pM. The half-life in serum in data set [4] was ~ 1 day. The half-life – broadly, the time in which the quantity being followed falls by half – in data set [7] is 14 h.

Values taken from publication PMC9817100, “Preclinical profiles of SKB264, a novel anti-TROP2 antibody conjugated to topoisomerase inhibitor, demonstrated promising antitumor efficacy compared to IMMU-132” (Frontiers in Oncology, 2022).
